B1: Germ cell-less protein-like 1 (Homo sapiens), Q96IK5 (parent)
chain: MGSLSSRVLRQPRPALAQQAQGARAGGSARRPDTGDDAAGHGFCYCAGSHKRKRSSGSFCYCHPDSETDEDEEEGDEQQRLLNTPRRKKLKSTSKYIYQTLFLNGENSDIKICALGEEWSLHKIYLCQSGYFSSMFSGSWKESSMNIIELEIPDQNIDVEALQVAFGSLYRDDVLIKPSRVVAILAAACLLQLDGLIQQCGETMKETVNVKTVCGYYTSAGTYGLDSVKKKCLEWLLNNLMTHQNVELFKELSINVMKQLIGSSNLFVMQVEMDIYTALKKWMFLQLVPSWNGSLKQLLTETDVWFSKQRKDFEGMAFLETEQGKPFVSVFRHLRLQYIISDLASARIIEQDAVVPSEWLSSVYKQQWFAMLRAEQDSEVGPQEINKEELEGNSMRCGRKLAKDGEYCWRWTGFNFGFDLLVTYTNRYIIFKRNTLNQPCSGSVSLQPRRSIAFRLRLASFDSSGKLICSRTTGYQILTLEKDQEQVVMNLDSRLLIFPLYICCNFLYISPEKKN
partner: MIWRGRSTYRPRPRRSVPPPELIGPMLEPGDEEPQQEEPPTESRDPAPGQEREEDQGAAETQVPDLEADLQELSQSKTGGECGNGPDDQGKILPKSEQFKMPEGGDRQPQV
B2: Pre-B-cell leukemia transcription factor 4 (Homo sapiens), Q9BYU1 (parent)
chain: MAAPPRPAPSPPAPRRLDTSDVLQQIMAITDQSLDEAQARKHALNCHRMKPALFSVLCEIKEKTVVSIRGIQDEDPPDAQLLRLDNMLLAEGVCRPEKRGRGGAVARAGTATPGGCPNDNSIEHSDYRAKLSQIRQIYHSELEKYEQACREFTTHVTNLLQEQSRMRPVSPKEIERMVGAIHGKFSAIQMQLKQSTCEAVMTLRSRLLDARRKRRNFSKQATEVLNEYFYSHLNNPYPSEEAKEELARKGGLTISQVSNWFGNKRIRYKKNMGKFQEEATIYTGKTAVDTTEVGVPGNHASCLSTPSSGSSGPFPLPSAGDAFLTLRTLASLQPPPGGGCLQSQAQGSWQGATPQPATASPAGDPGSINSSTSN
partner: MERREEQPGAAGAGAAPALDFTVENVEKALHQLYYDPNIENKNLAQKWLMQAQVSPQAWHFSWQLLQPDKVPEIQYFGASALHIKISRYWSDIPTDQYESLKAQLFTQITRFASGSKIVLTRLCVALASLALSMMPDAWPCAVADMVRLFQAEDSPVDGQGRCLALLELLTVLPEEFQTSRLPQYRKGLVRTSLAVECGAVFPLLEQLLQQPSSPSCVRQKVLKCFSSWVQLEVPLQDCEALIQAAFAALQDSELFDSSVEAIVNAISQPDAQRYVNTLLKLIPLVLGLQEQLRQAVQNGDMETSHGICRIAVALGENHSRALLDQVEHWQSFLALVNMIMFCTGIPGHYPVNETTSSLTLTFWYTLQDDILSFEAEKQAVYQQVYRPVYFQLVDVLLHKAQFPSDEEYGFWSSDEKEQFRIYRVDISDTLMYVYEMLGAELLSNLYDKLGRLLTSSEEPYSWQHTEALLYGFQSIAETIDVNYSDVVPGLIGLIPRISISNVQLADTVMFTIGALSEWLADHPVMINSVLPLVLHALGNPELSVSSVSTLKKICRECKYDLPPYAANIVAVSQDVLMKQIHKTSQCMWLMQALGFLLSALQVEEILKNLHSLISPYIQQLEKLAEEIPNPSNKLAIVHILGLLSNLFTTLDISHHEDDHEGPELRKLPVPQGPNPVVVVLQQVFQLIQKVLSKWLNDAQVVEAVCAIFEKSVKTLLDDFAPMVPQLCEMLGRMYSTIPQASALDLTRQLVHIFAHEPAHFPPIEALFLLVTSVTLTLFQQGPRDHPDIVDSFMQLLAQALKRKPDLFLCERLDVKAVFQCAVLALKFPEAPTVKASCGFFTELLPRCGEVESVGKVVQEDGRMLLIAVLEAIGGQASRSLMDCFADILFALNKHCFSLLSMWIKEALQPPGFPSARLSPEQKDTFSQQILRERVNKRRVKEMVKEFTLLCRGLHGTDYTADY
B3: Microtubule-associated tumor suppressor candidate 2 (Homo sapiens), Q5JR59-3 (parent)
chain: MGHCCCKPYNCLQCLDKTNESALVKEKELSIELANIRDEVAFHTAKCEKLQKEKEELERRFEDEVKRLGWQQQAELQELEERLQLQFEAEMARLQEEHGDQLLSIRCQHQEQVEDLTASHDAALLEMENNHTVAITILQDDHDHKVQELMSTHELEKKELEENFEKLRLSLQDQVDTLTFQSQSLRDRARRFEEALRKNTEEQLEIALAPYQHLEEDMKSLKQVLEMKNQQIHEQEKKILELEKLAEKNIILEEKIQVLQQQNEDLKARIDQNTVVTRQLSEENANLQEYVEKETQEKKRLSRTNEELLWKLQTGDPTSPIKLSPTSPVYRGSSSGPSSPARVSTTPR
partner: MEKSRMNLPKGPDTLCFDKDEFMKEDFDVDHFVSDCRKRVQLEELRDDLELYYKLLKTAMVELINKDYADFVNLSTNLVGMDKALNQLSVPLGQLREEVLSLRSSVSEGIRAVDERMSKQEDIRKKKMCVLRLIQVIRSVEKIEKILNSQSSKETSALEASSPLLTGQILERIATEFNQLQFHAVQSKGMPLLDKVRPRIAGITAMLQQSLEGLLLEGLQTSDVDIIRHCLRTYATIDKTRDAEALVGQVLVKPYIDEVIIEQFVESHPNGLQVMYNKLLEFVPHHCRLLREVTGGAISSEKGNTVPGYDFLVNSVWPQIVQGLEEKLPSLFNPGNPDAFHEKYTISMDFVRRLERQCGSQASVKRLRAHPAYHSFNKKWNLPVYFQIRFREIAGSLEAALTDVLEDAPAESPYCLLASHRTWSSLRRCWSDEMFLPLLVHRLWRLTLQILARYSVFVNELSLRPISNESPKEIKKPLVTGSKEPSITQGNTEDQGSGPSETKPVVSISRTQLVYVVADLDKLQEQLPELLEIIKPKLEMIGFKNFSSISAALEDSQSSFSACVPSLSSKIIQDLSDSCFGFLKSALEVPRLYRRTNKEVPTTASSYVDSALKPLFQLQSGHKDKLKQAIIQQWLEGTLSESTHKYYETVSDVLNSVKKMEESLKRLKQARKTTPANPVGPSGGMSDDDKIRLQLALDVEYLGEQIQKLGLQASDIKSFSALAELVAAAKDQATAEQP
B4: Fibronectin type III and SPRY domain-containing protein 2 (Homo sapiens), A1L4K1 (parent)
chain: MEEESGEELGLDRSTPKDFHFYHMDLYDSEDRLHLFPEENTRMRKVVQAEMANESRGAGDGKAQRDLQEEVDELVHLYGLEDDHELGDEFVDENIPRTGVSEYPPYMMKRRDPAREQRDWRLSGEAAEAEDLGFGGWGSAGQCQDLREAYRYTHGRASEEYECYVIPEEEDEEEAADVFCVTCKTPIRAFQKVFDEHKEHEVIPLNEALESAKDEIHKNMYKLEKQIIEMENFANHLEEVFITVEENFGKQEQNFESHYNEILETLAQKYEEKIQALGEKKKEKLEALYGQLVSCGENLDTCKELMETIEEMCHEEKVDFIKDAVAMADRLGKFLKTKTDVEISAQPEFEDQTLDFSDVEQLMGSINTIPAPSAPVINPQVPNSATGSSVRVCWSLYSDDTVESYQLSYRPVQDSSPGTDQAEFTVTVKETYCSVTNLVPNTQYEFWVTAHNRAGPSPSSERAVYMTAPSPPIIKTKEIRSCEEAVLICWESGNLNPVDSYTVELTQAESPEASGVTESVVGIPTCESVVQLQPGRSYIIYVRALNMGGPSVRSEPATVHTIGSYFRLNKDTCHPWLTISEDGLTAVRSERRTPARELSPSDTHFTRCVAVMGNLIPVRGHHYWEVEVDEHLDYRVGVAFADVRKQEDLGANCLSWCMRHTFASSRHKYEFLHNRTTPDIRITVPPKKIGILLDYEHSKLSFFNVDLSQHLYTFSCQLHEFVHPCFSLEKPGCLKVHNGISMPKHVTFY
B5: Microtubule-associated tumor suppressor candidate 2 (Homo sapiens), Q5JR59-3 (parent)
chain: B3 chain
partner: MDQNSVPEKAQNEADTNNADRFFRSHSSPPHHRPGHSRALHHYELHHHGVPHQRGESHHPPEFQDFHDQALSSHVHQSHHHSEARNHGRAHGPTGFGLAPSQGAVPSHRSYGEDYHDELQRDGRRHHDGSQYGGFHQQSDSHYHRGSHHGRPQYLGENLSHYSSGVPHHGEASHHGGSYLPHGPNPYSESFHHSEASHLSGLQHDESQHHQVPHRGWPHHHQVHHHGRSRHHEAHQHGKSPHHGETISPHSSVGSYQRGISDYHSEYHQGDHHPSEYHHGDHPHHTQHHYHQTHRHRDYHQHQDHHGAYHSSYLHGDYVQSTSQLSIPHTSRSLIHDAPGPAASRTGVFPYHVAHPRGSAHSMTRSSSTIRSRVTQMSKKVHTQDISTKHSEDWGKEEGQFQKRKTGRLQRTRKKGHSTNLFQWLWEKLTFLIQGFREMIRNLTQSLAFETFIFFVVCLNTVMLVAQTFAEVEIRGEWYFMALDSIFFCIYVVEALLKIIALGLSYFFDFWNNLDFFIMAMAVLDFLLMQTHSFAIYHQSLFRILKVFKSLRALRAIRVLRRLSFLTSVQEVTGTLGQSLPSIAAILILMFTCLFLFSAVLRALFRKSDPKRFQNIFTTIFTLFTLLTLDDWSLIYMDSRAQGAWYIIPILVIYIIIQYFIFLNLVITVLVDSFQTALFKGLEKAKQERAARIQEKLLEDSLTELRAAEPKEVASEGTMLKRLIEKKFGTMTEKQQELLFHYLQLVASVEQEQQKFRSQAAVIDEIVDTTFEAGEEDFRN

Variants of: B1
Conditions: with xage3_human XAGE3, Q8WTP9

| effect of a mutation on the interaction | Variant |
| --- | --- |
| with no effect | R449Q |
| with no effect | I340V |
| with no effect | R457H |

Continued, variant first:

| Variant | effect of a mutation on the interaction |
| --- | --- |
| K123R | with no effect |
| E77K | with no effect |

Variants of: B2
Conditions: with ipo13_human IPO13, O94829

| effect of a mutation on the interaction | Variant |
| --- | --- |
| with no effect | T283M |
| with no effect | T154M |
| with no effect | R327Q |

Variants of: B3
Conditions: with cog2_human COG2, Q14746

| effect of a mutation on the interaction | Variant |
| --- | --- |
| with no effect | A89V |

Variants of: B4
Conditions: with cor1a_human CORO1A

| effect of a mutation on the interaction | Variant |
| --- | --- |
| with no effect | E720K |
| with no effect | K333T |

Variants of: B5
Conditions: with ctsr1_human CATSPER1, Q8NEC5

| effect of a mutation on the interaction | Variant |
| --- | --- |
| with no effect | A89V |

From IntAct's records for PubMed 31515488
